Numbering of substitutions follows the chain as printed.
Experiments:
Assay in all cases: BLI (Octet), F on anti-HIS tip, 20 nM mAb
[1] = biological target: RSV F protein mutant pXCS876 (RSV A2, UniProt P03420 26-109)
[2] = biological target: T1, RSV F protein mutant pXCS738 (RSV A2, UniProt P03420 26-109)
T1 chain 1: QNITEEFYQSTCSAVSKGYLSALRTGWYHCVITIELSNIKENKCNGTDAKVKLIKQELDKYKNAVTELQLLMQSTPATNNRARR
T1 chain 2: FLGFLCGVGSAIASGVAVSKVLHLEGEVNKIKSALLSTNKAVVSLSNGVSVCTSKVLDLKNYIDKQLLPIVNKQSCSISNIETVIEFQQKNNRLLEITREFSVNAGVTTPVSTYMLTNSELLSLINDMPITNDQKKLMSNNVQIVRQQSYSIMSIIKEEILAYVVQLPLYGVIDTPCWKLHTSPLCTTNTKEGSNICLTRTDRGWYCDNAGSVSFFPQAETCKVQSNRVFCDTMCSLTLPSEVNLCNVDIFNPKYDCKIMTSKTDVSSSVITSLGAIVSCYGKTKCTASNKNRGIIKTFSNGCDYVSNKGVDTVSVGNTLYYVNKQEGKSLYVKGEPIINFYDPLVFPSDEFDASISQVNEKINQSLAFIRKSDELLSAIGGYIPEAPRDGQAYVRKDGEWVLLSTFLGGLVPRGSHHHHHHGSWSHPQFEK

[3] = biological target: RSV F protein mutant pXCS848 (RSV A2, UniProt P03420 26-109)
[4] = biological target: RSV F protein mutant pXCS811 (RSV A2, UniProt P03420 26-109)
[5] = biological target: RSV F protein mutant pXCS805 (RSV A2, UniProt P03420 26-109)
[6] = biological target: RSV F protein mutant pXCS878 (RSV A2, UniProt P03420 26-109)
[7] = biological target: RSV F protein mutant pXCS839 (RSV A2, UniProt P03420 26-109)
[8] = biological target: RSV F protein mutant pXCS879 (RSV A2, UniProt P03420 26-109)
[9] = biological target: T2, RSV F protein mutant pXCS852 (RSV A2, UniProt P03420 26-109)
T2 chain 1: T1 chain 1
T2 chain 2: T1 chain 2 with C6L, I160V, C235N, D350S

[10] = biological target: T3, RSV F protein mutant pXCS842 (RSV A2, UniProt P03420 26-109)
T3 chain 1: T1 chain 1 with C30S, T78C
T3 chain 2: T1 chain 2 with C6L, I12C, C52L, S54I, I160V, C235N, D350S

DS-Cav1 = DS-Cav1 (UniProt P03420 26-513)
[11] = biological target: RSV F protein mutant pXCS898 (RSV A2, UniProt P03420 26-109)
[12] = biological target: RSV F protein mutant pXCS804 (RSV A2, UniProt P03420 26-109)
[13] = biological target: RSV F protein mutant pXCS885 (RSV A2, UniProt P03420 26-109)
[14] = biological target: RSV F protein mutant pXCS806 (RSV A2, UniProt P03420 26-109)
[15] = biological target: RSV F protein mutant pXCS749 (RSV A2, UniProt P03420 26-109)

B1: AM22 (antibody, V domains shown)
VH: QVQLVQSGAEVKKPGATVKVSCKISGHTLIKLSIHWVRQAPGKGLEWMGGYEGEVDEIFYAQKFQHRLTVIADTATDTVYMELGRLTSDDTAVYFCGTLGVTVTEAGLGIDDYWGQGTLVTVSS
VL: EIVLTQSPGTLSLSPGERATLSCRASQIVSRNHLAWYQQKPGQAPRLLIFGASSRATGIPVRFSGSGSGTDFTLTINGLAPEDFAVYYCLSSDSSIFTFGPGTKVDFK
Q: For B1, which “Response (nm shift)” value [1] is on record?
A: 0.268 nm

Q: What about the “Response (nm shift)” value [2] of the same binder?
A: 0.273 nm

Q: What about the “Response (nm shift)” value [3] of the same binder?
A: 0.109 nm

Q: And the “Response (nm shift)” value [4]?
A: 0.322 nm

Q: What about the “Response (nm shift)” value [5] of the same binder?
A: 0.173 nm

Q: What about the “Response (nm shift)” value [6] of the same binder?
A: 0.324 nm

Q: And the “Response (nm shift)” value [7]?
A: 0.39 nm

Q: What about the “Response (nm shift)” value [8] of the same binder?
A: 0.351 nm

Q: And the “Response (nm shift)” value [9]?
A: 0.565 nm

Q: What about the “Response (nm shift)” value [10] of the same binder?
A: 0.493 nm

Q: And the “Response (nm shift)” value (DS-Cav1)?
A: 0.469 nm

Q: And the “Response (nm shift)” value [11]?
A: 0.416 nm

Q: And the “Response (nm shift)” value [12]?
A: 0.267 nm

Q: What about the “Response (nm shift)” value [13] of the same binder?
A: 0.105 nm

Q: What about the “Response (nm shift)” value [14] of the same binder?
A: 0.152 nm

B2: MPE8 (antibody, V domains shown)
VH: EVQLVESGGGLVKPGGSLRLSCAASGFTFSSYSMNWVRQAPGKGLEWVSSISASSSYSDYADSAKGRFTISRDNAKTSLFLQMNSLRAEDTAIYFCARARATGYSSITPYFDIWGQGTLVTVSS
VL: QSVVTQTPSVSGAPGQRVTISCTGSSSNIGAGYDVHWYQQLPGTAPKLLIYDNNNRPSGVPDRFSASKSGTSASLAITGLQAEDEADYYCQSYDRNLSGVFGTGTKVTVL
notes: also called MPEG
Q: How did the “Response (nm shift)” value [2] turn out when B2 was run?
A: 0.741 nm

Q: And the “Response (nm shift)” value [3]?
A: 0.266 nm

Q: And the “Response (nm shift)” value [9]?
A: 1.13 nm

Q: And the “Response (nm shift)” value [10]?
A: 0.932 nm

Q: What about the “Response (nm shift)” value [13] of the same binder?
A: 0.408 nm

Q: And the “Response (nm shift)” value [15]?
A: 0.206 nm

Reference: patent US20230218738A1 (Pfizer, published 2023)
